Test results taken from US20220119534A1 (DRAGONFLY THERAPEUTICS, published 2022).

How the values were obtained:
Human CLEC12A-His = biological target: T1, Human CLEC12A-His (human, UniProt Q5QGZ9 65-265); assay: SPR Biacore 8K 37 C; TriNKET captured on anti-hFc chip, hCLEC12A-His as analyte; 1:1 fit; after 2 wks 40 C at pH 5.0, n=2
T1 construct: Recombinant soluble protein made in house (Dragonfly Tx); The hCLEC12A spot of the HuProt array is written under this molecule as well; also called hCLEC12A-His; hCLEC12A; not shown: His tag
T1 sequence: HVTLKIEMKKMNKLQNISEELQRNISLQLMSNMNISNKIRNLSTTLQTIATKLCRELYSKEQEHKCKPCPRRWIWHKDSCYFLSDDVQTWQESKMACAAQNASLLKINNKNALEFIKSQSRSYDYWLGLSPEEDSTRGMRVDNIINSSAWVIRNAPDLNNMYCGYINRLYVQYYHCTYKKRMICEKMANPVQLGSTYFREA

mFc-hNKG2D = biological target: T2, mFc-hNKG2D (human, UniProt P26718 73-216); assay: SPR Biacore 8K 37 C; mFc-hNKG2D captured on anti-mFc chip, TriNKET as analyte; steady state fit; un-oxidized control
T2 construct: extracellular domain; Made in house (Dragonfly Tx); the order of tag and ECD follows the name mFc-hNKG2D; also called mFc-tagged human NKG2D; not shown: mouse Fc tag
T2 sequence (looked up): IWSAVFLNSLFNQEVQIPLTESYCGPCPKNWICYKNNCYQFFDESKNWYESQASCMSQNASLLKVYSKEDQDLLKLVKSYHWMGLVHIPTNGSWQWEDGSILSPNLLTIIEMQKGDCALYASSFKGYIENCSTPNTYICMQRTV

B1: F3'-1602 TriNKET (bispecific antibody, human IgG1, kappa)
chain: QLQLQESGPGLVKPSETLSLTCTVSGFSLTNYGLHWIRQPPGKCLEWIGVIWSGGKTDYNPSLKSRVTISKDTSKNQFSLKLSSVQAADTAVYYCAKYDYDDSLDYWGQGTLVTVSSGGGGSGGGGSGGGGSGGGGSDIQMTQSPSSLSASVGDRVTITCHASQNINFWLSWYQQKPGKAPKLLIYEASNLHTGVPSRFSGSGSGTRFTLTISSLQPEDIATYYCQQSHSYPLTFGCGTKLEIKGSDKTHTCPPCPAPELLGGPSVFLFPPKPKDTLMISRTPEVTCVVVDVSHEDPEVKFNWYVDGVEVHNAKTKPREEQYNSTYRVVSVLTVLHQDWLNGKEYKCKVSNKALPAPIEKTISKAKGQPREPRVYTLPPCRDELTKNQVSLTCLVKGFYPSDIAVEWESNGQPENNYKTTPPVLVSDGSFTLYSKLTVDKSRWQQGNVFSCSVMHEALHNHYTQKSLSLSPG
heavy: EVQLVESGGGLVKPGGSLRLSCAASGFTFSSYSMNWVRQAPGKGLEWVSSISSSSSYIYYADSVKGRFTISRDNAKNSLYLQMNSLRAEDTAVYYCARGAPIGAAAGWFDPWGQGTLVTVSSASTKGPSVFPLAPSSKSTSGGTAALGCLVKDYFPEPVTVSWNSGALTSGVHTFPAVLQSSGLYSLSSVVTVPSSSLGTQTYICNVNHKPSNTKVDKKVEPKSCDKTHTCPPCPAPELLGGPSVFLFPPKPKDTLMISRTPEVTCVVVDVSHEDPEVKFNWYVDGVEVHNAKTKPREEQYNSTYRVVSVLTVLHQDWLNGKEYKCKVSNKALPAPIEKTISKAKGQPREPQVCTLPPSRDELTENQVSLTCLVKGFYPSDIAVEWESNGQPENNYKTTPPVLDSDGSFFLYSWLTVDKSRWQQGNVFSCSVMHEALHNHYTQKSLSLSPG
light: DIQMTQSPSSVSASVGDRVTITCRASQGISSWLAWYQQKPGKAPKLLIYAASSLQSGVPSRFSGSGSGTDFTLTISSLQPEDFATYYCQQGVSFPRTFGGGTKVEIKRTVAAPSVFIFPPSDEQLKSGTASVVCLLNNFYPREAKVQWKVDNALQSGNSQESVTEQDSKDSTYSLSSTLTLSKADYEKHKVYACEVTHQGLSSPVTKSFNRGEC
notes: Trispecific F3' format: CLEC12A scFv-Fc paired with NKG2D Fab-Fc; Stressed and control samples of the stability studies are the same molecule; also called AB0237
A Kd (Human CLEC12A-His) of 1.01 nM, a koff (Human CLEC12A-His) of 0.000871 s⁻¹ and a kon (Human CLEC12A-His) of 865000 M⁻¹ s⁻¹ were found for B1 in this work. For the same binder, the Kd (mFc-hNKG2D) was 759 nM.
